The text below walks through data of patent US20130071921A1 (Pfizer, published 2013).

Assay [1] concerns the target T1, Recombinant human Dkk-1 (R&D Systems cat no. 1096-DK/CF), 10xHis tag at the C terminal (human, UniProt O94907 32-266).
T1 construct: the actual N-terminus of the purified protein is marked in bold italic after residue 30, but the mark is an image lost in the text; also called rhuDkk-1; hDkk-1
T1 sequence: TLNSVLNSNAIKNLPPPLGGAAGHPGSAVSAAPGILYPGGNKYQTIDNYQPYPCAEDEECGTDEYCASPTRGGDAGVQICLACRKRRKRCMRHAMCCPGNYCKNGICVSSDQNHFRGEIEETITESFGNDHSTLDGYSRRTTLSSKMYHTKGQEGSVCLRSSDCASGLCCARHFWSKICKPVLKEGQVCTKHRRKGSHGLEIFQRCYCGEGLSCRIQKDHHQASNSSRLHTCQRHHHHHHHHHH
Nature of the assay: SPR (Table 4, headed 37C, BIAcore or ProteOn); 37 C per caption of Table 4. On the technique in general: In SPR one partner is held on a chip, and binding of the other changes the refractive index at the surface.

Assay [2] has as its target T2, recombinant human Dkk3 (R&D systems Cat No. 1118-DK/CF) (human, UniProt Q9UBP4 22-350).
T2 construct: Bought; also called hDkk-3
Nature of the assay: SPR BIAcore, huMabJC18 captured by goat Fab2 anti-human Fc.

For assay [3], the target named is T1, Recombinant human Dkk-1 (R&D Systems …). As to the kind of experiment: SPR (Table 4, headed 37C, BIAcore or ProteOn).
Assay [4] addresses T3, recombinant rat Dkk-1 (R&D systems Cat No. 4010-DK/CF) (rat).
T3 construct: Bought
As to the kind of experiment: SPR BIAcore, huMabJC18 captured by goat Fab2 anti-human Fc, rat Dkk-1 injected. The method, then: For the interaction analyses of huMabJC18 with mouse or rat Dkk-1, low-levels of huMabJC18 (typically, 100-400 response units) were captured on individual flow cells by goat Fab2 anti-human Fc, which was pre-immobilized to the CM5 chip surface. A goat Fab2 anti-human Fc-saturated flow cell containing no humanized antibody served as reference channel. Mouse or rat Dkk-1 (R&D Systems) was titrated over the chip using 70.1 nM or 30.2 nM as top concentration, respectively, of a three-fold dilution series Association and dissociation phases were monitored at 100 μL/min for 90 seconds and 30 minutes, respectively. Capture surfaces for all experiments were regenerated with two 30 second pulses of […] H₃PO₄, except for the amine-coupled huMabJC18 surface used in the human Dkk-1 experiment, which was not regenerated.

Assay [5] addresses T4, recombinant human Dkk4 (R&D systems Cat No. 1269-DK/CF) (human, UniProt Q9UBT3 19-224).
T4 construct: Bought; also called hDkk-4
T4 sequence (looked up): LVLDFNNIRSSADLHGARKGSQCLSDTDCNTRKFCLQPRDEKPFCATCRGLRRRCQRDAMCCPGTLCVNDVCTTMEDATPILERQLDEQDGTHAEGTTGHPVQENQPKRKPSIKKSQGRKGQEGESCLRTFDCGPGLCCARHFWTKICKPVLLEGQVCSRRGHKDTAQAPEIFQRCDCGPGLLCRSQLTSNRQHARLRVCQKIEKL
Nature of the assay: SPR BIAcore, huMabJC18 captured by goat Fab2 anti-human Fc, hDkk-4 titrated from 76.3 nM.

For assay [6], the target named is T1, Recombinant human Dkk-1 (R&D Systems …). Nature of the assay: SPR BIAcore 25C, huMabJC18 IgG amine-coupled, human Dkk1 injected. The method, then:
The affinity of huMabJC18 to human, mouse or rat Dkk1 was determined by using the BIAcore3000™ surface plasmon resonance (SPR) system (BIAcore Inc., Piscataway, N.J.), equipped with a CM5 sensor chip (BIAcore AB, Uppsala, Sweden). For the huMabJC18-human Dkk1 interaction analysis, reaction surfaces were generated by amine coupling of huMabJC18 to three flow cells (Fc2, Fc3 and Fc4). CM5 chips were activated with N-ethyl-N′-(3-dimethylaminopropyl)-carbodiinide hydrochloride (EDC) and N-hydroxysuccinimide (NHS) according to the supplier's instructions. The huMabJC18 IgG was diluted into 10 mM sodium acetate pH 4.0 and injected over the activated chip at a concentration of 30 μg/ml.
Using variable flow time across the individual chip channels, a range of antibody density was achieved: 200-800 response units (RU). The IgG and reference surfaces were then saturated with goat Fab2 anti-human Fc (Cappel 55053) to prevent nonspecific binding by Dkk-1 to the chip surface. The chip was then blocked with ethanolamine. Assays were performed at 25° C., with a BIAcore running buffer composed of HBS-EP (0.01M HEPES, pH 7.4, 0.15 NaCl, 3 mM EDTA, 0.005% Surfactant P20)+2 mg/ml BSA+2 mg/ml CM Dextran. A five membered, three fold dilution series starting at 30.9 nM purified human Dkk1 (R&D Systems) protein was injected for 1.5 min at 100 μL/min, and dissociation was monitored for […]. Kinetic association rates (kₒₙ) and dissociation rates (koff) were obtained simultaneously by fitting the data to a 1:1 Langmuir binding model (Karlsson, R. Roos, H. Fagerstam, L. Petersson, B. (1994). Methods Enzymology 6. 99-110) using the BIAevaluation program. Equilibrium dissociation constant (KD) values were calculated as koff/kₒₙ.

Where only a bound is given, the exact number is not on record here.

T2 sequence (Q9UBP4 22-350 limits assumed): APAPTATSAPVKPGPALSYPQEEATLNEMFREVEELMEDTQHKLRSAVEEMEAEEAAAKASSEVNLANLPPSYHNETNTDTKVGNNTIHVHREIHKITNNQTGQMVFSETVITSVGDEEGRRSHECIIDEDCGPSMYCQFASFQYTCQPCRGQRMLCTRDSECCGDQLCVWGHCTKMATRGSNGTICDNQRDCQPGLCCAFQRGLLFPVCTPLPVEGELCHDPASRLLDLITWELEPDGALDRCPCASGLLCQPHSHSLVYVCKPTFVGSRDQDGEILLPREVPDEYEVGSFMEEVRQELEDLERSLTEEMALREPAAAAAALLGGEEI

B1: huMabJC18, fully humanized anti-Dkk-1 monoclonal antibody (antibody, human IgG2, kappa, V domains shown)
VH: EVQLVESGGGLVQPGGSLRLSCAASGFTFSSYAISWVRQAPGKGLEWVASVSGTGLGFQTYYPDSVKGRFTISRDNAKNSLYLQMNSLRAEDTAVYYCATSLENYAFDYWGQGTTVTVSS
VL: EIVLTQSPATLSLSPGERATLSCRASESVDDFGISFINWYQQKPGQAPRLLIYAGSKQGSGIPARFSGSGSGTDFTLTISSLEPEDFAVYYCQQLKEVPPTFGGGTKVEIKR
notes: IgG2(delta a: A329S, P330S), kappa; also called huMabJC18 IgG
For the molecule B1, the kon (as a rule, a measure of how fast the partners come together) in assay [1] was greater than 1.36e+06 M⁻¹ s⁻¹; in assay [4] it was greater than 1.3e+06 M⁻¹ s⁻¹; in assay [5], 15000 M⁻¹ s⁻¹; in assay [6], greater than 1.3e+06 M⁻¹ s⁻¹. Also, in assay [2], the binding result is listed as “no binding”. Also, the Kd (commonly the constant that tells how readily two partners part at equilibrium) in assay [3] was less than 0.002 nM; in assay [4], less than 0.1 nM; in assay [5] it was 11 nM; in assay [6], less than 0.002 nM. Further, the koff (commonly a measure of how fast the partners let go of each other) was less than 2e-06 s⁻¹ in assay [3], 0.00021 s⁻¹ in assay [4], 0.000172 s⁻¹ in assay [5] and less than 2e-06 s⁻¹ in assay [6]. Also, the values for the T1/2 in assay [4], in assay [5] and in assay [6] were 0.92 h, 1.12 h and greater than 96.3 h, respectively.
